# Reference: the DeepSol protein solubility set
# Experiment: soluble on expression in E. coli; label from the status in PepcDB or PDB records
row,Sequence,soluble on expression in E. coli
1,MGSDKIHHHHHHMRKSIVLSTAMALAAGTAAYAAEISDGKVKIGILNDQSGVYANFGGKYSYEAAKMAVEDFGGKVLGAPVEVVTADHQNKADVASNIARQWYDTEQVDSIMELTSSSVGLAVQALSKDKKKITVNTGAATTELTGKQCSPYGFHWAYDTYSLAVGTGGALVKQGGDSWFFLTADYAFGYSLEENTSNFVKANGGKVLGSVRHPLATTDYSSFLLQAQSSGAKVIGLANAGLDTSNAIKQASEFGIVAGGQRLAALLFTLAEVHGLGLEAAQGLTLTEGFYWDRDDESRKFGERFKERTGAMPNMIHTGTYSAVLHYLKAIEKAGTDDADAVAKAMKEMPVNDVFAKDGHVAANGRMIHDMYLMEVKKPDESKQPWDYYKVLATIPGKEAFMDPTKSGCPLVKQ,not soluble
2,MCDIGNRQAYQRAQLDALLGRVRLQANQMEWRPGIYVGEGTTIASSAQLEPPLWIGQHCYIGEEVQLKAGTVIGDESRIEAGACLDRAVVWNRVQIGQRSHLEGCVLEHHHHHH,not soluble
3,MQGEDTIMKTTELKLVYFSPTGTTRRVIMEAARQIDLKSVSFDLSVHKEKKPVLQFDETDFVLFGIPVYSGRVPETFLSYFETLKGNNTPAALIATYGCRAYEDALLELKTEVENRGFHVIGAGAFPTEHSIVRSIGLSRPNKADLKTISEFGIALNRRIKNEDLSALSIQVPGNTPYRKYAKTPLIPKADVSLCTECKACVKSCPAGAISAQDPKKTDKKKCISCLRCVRSCKQKARSVSSMKLSMAAKKLNKVCQSDKAADIFL,not soluble
4,MKSLQALFGGTFDPVHYGHLKPVETLANLIGLSRVIIMPNNVPPHRPQPEASSAQRKYMLELAIADKPLFTLDERELQRNAPSYTAQTLKAWREEQGPEAPLAFIIGQDSLLNFPTWHDYDTILDNTHLIVCRRPGYPLEMTQAQHQQWLEQHLTHTPDDLHQLPAGKIYLAETPWLNISATLIRERLEKGESCDDLLPENVLNYINQQGLYR,not soluble
5,MSLFYEEVFSDLKEEEKALLEFISSGNLEIDRKLEGGVPVGSLCLLEGGNDSGKSIFLQQIMWGALNQDKRVLALATEKTSKELLNQMESLKHGISDYFIIGRAKIFEINAGYVEENPQLSESLLQVLLECIKRCKEELILIDSLTIFAVNASENAVLNFFTECVKLCDNGKTILISVHGYAFSQSVLYRLRSVCSVCLELRIEQVGDQWIKTMEIQKLRGARKTRGNLLSFDVDSKFGLKIIPVSKVKAEGHHHHHH,soluble
6,MSSDKFKLDTLFDDNDEIIEPDGADVKKRNVAYYYHKDVGHFHYGQLHPMKPQRLVVCNDLVVSYEMPKYMTVVESPKLDAADISVFHTEDYVNFLQTVTPKLGLTMPDDVLRQFNIGEDCPIFAGLWDYCTLYAGGSVEGARRLNHKMNDIVINWPGGLHHAKKSEASGFCYVNDIVLGILELLKYHKRVLYIDIDIHHGDGVQEAFNNSDRVMTVSFHRFGQYFPGSGSIMDKGVGPGKYFAINVPLMAAIRDEPYLKLFESVISGVEENFNPEAIVLQCGSDSLCEDRLGQFALSFNAHARAVKYVKSLGKPLMVLGGGGYTLRNVARCWALETGVILGLRMDDEIPGTSLYSHYFTPRLLRPNLVPKMNDANSAAYLASIEKETLACLRMIRGAPSVQMQNIVGIRLDEIEQIEENERLQKSSKSSIEYEVGKVSEKMEEECFVEEDSKPPSFPPGQDPRRIGQYWGYDRSGLAPPRSHSDVIEEAKYEDRDRRKDLNIPGIP,not soluble
7,MAHHHHHHMAVAYVFDGAVLKQMSLEAGHPKFTVLDTPLCSDSAVTCFGKDEFYFINGSVPNVLRHFGGRSGCTEHFLPGPAHCLLVHRQKVYCCGVDCLYVFDPLGEEVETIELGQQIKELTAADHGFVFVNDRHELYAFHFTRGVKIVGTKGPVSKLLGHHNRYAVVLLDNGDVISVNEEAEVRENLFPLKIKERFVALDTGMTLALREDELALHMNGTWLCLDGFKGRELQFLGVPLTPAEDACTICFCDFEDGDGVRLDCGHPFHRDCLAEFSTHAKSFVEKGEHIVFTYAVCPSGCGTHIRHAAAPLSAYMNDLYRAVTKDAEGRLREMENKTLEDLYYYVCCRCEKPYYGGNRWCSRTISGEPCKKPSELICSDCNDDFLCPSHNHDFVLYKCRYCCNPATHLSFGNRYMCDACNKKWEGTEPEPMECPGAEKCPLGGAHPTGGSQPLGCMLCTLFDKCDAKHFFPPQ,not soluble
8,MDQVEIRTHTALHVVKGAVRKVLGAKWTASTYVNSNHGRLTVKFERKPSDQEMDKVFELANEKVRKNLPIIIEVLPREEAERKYGDEIYDLFLISAEVRELSIVVIPDWSINACNKQHTKFTSEIGEIIKDYWRYRNSKQLLEISFDIKC,soluble
